Reference: PMC9482650, “Quantitative fragmentomics allow affinity mapping of interactomes” (Nature Communications, 2022)

T1: SYNJ2BP, P57105
T1 sequence (P57105 8-110, limits assumed, looked up): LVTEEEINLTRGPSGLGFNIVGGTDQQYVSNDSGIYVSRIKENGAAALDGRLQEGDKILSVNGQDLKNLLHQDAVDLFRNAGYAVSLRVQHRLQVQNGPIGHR

T2: DFNB31_2, Q9P202
T2 sequence (Q9P202 274-371, limits assumed, looked up): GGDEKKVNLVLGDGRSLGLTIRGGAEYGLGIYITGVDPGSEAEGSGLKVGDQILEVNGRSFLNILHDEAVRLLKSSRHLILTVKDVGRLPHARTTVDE

T3: PDZD2_2, O15018
T3 sequence (O15018 329-429, limits assumed, looked up): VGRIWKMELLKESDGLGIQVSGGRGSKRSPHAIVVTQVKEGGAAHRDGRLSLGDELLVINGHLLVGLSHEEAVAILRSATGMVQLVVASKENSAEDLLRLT

T4: TX1BP3, O14907
T4 sequence (O14907 10-122, limits assumed, looked up): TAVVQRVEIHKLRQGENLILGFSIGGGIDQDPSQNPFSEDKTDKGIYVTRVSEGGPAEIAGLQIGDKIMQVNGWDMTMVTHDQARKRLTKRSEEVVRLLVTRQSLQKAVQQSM

T5: HTRA3, P83110
T5 sequence (P83110 354-453, limits assumed, looked up): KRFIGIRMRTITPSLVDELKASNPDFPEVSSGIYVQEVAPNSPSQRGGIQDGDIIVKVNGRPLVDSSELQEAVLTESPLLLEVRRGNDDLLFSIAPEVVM

T6: LIN7A, O14910
T6 sequence (O14910 103-200, limits assumed, looked up): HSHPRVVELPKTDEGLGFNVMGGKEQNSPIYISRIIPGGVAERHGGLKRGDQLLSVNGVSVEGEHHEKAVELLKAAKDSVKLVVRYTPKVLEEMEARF

T7: GRIP1_7, Q9Y3R0
T7 sequence (Q9Y3R0 999-1096, limits assumed, looked up): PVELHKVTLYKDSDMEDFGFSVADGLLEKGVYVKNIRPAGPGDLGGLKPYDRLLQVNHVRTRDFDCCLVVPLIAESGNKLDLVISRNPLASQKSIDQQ

T8: ARHGAP21, Q5T5U3
T8 sequence (Q5T5U3 45-169, limits assumed, looked up): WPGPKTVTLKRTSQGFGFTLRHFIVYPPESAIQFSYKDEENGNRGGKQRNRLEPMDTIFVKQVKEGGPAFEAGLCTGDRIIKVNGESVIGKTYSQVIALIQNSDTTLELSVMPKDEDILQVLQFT


Key:
Experiment in all cases: holdup assay
Parameters in all cases: key: below the threshold = too weak to quantify, mostly under pKd 3.1 to 4
Settings in all cases: plain residues with an end cap or a label only (N-terminal biotin on a linker: ado-ado)
[1] = biological target: T1, SYNJ2BP, P57105
[2] = biological target: Inadl_2, Q8NI35
[3] = biological target: LNX1_2, Q8TBB1
[4] = biological target: TJP1_2, Q07157
[5] = biological target: T2, DFNB31_2, Q9P202
[6] = biological target: FRMPD2_1, Q68DX3
[7] = biological target: T3, PDZD2_2, O15018
[8] = biological target: IL16_3, Q14005
[9] = biological target: Inadl_5, Q8NI35
[10] = biological target: SCRIB_2, Q14160
[11] = biological target: T4, TX1BP3, O14907
[12] = biological target: HTRA1, Q92743
[13] = biological target: GRIP2_3, Q9C0E4
[14] = biological target: DLG2_2, Q15700
[15] = biological target: GORASP1, Q9BQQ3
[16] = biological target: T5, HTRA3, P83110
[17] = biological target: T6, LIN7A, O14910
[18] = biological target: GRID2IP_2, A4D2P6
[19] = biological target: Inadl_8, Q8NI35
[20] = biological target: T7, GRIP1_7, Q9Y3R0
[21] = biological target: FRMPD4, Q14CM0
[22] = biological target: DLG5_1, Q8TDM6
[23] = biological target: DLG4_3, P78352
[24] = biological target: T8, ARHGAP21, Q5T5U3
[25] = biological target: PICK1, Q9NRD5
[26] = biological target: MAGI2_3, Q86UL8
[27] = biological target: MAGI3_2, Q5TCQ9
[28] = biological target: MAGI2_5, Q86UL8
[29] = biological target: Inadl_10, Q8NI35
Chain of Inadl_10, Q8NI35 (Q8NI35 1673-1763): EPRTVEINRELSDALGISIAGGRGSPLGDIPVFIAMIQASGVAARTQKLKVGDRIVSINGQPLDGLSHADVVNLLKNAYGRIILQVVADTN

Chain of Inadl_8, Q8NI35 (Q8NI35 1425-1530): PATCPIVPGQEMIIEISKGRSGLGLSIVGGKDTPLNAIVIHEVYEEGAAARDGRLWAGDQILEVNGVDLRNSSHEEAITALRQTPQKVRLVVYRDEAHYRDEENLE
Chain of HTRA1, Q92743 (Q92743 360-477): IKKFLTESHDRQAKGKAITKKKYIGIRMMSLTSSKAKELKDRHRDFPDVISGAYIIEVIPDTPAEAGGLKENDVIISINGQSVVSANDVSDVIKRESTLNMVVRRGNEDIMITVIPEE
Chain of DLG5_1, Q8TDM6 (Q8TDM6 617-713): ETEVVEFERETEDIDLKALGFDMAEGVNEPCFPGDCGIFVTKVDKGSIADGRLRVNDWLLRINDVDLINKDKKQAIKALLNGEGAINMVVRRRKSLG
Chain of MAGI3_2, Q5TCQ9 (Q5TCQ9 398-503): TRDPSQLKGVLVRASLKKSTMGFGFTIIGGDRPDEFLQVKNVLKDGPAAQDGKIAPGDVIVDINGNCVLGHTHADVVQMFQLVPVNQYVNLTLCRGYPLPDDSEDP
Chain of DLG4_3, P78352 (P78352 306-403): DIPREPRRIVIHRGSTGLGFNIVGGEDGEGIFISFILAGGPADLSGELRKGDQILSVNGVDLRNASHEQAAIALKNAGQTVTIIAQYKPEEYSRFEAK
Chain of GORASP1, Q9BQQ3 (Q9BQQ3 1-208): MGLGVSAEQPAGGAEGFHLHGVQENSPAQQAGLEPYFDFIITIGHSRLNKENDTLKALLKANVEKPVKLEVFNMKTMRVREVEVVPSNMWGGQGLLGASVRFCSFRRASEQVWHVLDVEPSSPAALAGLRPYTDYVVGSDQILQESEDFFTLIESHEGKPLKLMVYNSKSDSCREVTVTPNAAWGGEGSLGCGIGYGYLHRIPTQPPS
Chain of MAGI2_3, Q86UL8 (Q86UL8 600-682): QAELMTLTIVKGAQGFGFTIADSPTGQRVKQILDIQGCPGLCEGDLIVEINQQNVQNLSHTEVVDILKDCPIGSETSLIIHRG
Chain of FRMPD2_1, Q68DX3 (Q68DX3 770-861): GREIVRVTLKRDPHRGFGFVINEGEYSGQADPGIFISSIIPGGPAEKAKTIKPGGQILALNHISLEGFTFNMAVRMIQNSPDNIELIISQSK
Chain of TJP1_2, Q07157 (Q07157 181-274): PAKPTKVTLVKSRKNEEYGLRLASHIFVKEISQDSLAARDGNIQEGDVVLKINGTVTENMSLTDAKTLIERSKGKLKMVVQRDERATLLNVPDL
Chain of GRID2IP_2, A4D2P6 (A4D2P6 272-370): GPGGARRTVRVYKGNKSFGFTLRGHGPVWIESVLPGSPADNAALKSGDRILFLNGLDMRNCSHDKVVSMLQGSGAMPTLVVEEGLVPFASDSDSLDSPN
Chain of GRIP2_3, Q9C0E4 (Q9C0E4 238-339): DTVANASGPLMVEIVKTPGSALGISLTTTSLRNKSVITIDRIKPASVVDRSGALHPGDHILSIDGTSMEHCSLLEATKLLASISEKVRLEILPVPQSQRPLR
Chain of IL16_3, Q14005 (Q14005 1107-1207): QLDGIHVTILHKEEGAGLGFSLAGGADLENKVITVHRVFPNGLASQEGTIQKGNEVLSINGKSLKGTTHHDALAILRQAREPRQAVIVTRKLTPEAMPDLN
Chain of FRMPD4, Q14CM0 (Q14CM0 67-160): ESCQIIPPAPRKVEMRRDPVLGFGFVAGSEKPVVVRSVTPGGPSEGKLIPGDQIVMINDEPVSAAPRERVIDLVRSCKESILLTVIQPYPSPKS
Chain of DLG2_2, Q15700 (Q15700 189-283): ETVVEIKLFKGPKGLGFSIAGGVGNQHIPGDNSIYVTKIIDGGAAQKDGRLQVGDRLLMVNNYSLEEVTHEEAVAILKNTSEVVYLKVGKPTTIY
Chain of LNX1_2, Q8TBB1 (Q8TBB1 371-470): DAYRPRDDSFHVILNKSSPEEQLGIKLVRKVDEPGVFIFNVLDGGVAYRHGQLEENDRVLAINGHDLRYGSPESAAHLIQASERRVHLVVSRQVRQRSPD
Chain of SCRIB_2, Q14160 (Q14160 857-960): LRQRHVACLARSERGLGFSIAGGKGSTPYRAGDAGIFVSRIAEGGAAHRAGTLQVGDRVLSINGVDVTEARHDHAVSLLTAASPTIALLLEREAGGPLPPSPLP
Chain of MAGI2_5, Q86UL8 (Q86UL8 915-1017): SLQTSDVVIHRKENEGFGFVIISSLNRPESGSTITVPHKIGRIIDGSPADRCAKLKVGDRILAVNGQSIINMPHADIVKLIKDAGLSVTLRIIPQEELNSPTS
Chain of Inadl_2, Q8NI35 (Q8NI35 238-335): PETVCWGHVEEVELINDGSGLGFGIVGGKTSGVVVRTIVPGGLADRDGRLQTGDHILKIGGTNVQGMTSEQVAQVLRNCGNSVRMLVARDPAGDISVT
Chain of Inadl_5, Q8NI35 (Q8NI35 673-780): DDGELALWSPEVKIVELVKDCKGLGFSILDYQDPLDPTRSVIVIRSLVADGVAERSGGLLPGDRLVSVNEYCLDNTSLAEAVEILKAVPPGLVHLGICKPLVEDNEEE
Chain of PICK1, Q9NRD5 (Q9NRD5 17-115): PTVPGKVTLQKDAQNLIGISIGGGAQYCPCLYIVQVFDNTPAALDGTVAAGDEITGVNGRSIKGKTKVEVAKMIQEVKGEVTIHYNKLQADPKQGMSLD

pKd [1] | pKd [2] | pKd [3] | pKd [4] | pKd [5] | pKd [6] | pKd [7] | pKd [8] | pKd [9] | pKd [10] | pKd [11] | pKd [12] | pKd [13] | pKd [14] | pKd [15] | pKd [16] | pKd [17] | pKd [18] | pKd [19] | pKd [20] | Binder | other results
5.41 | below the threshold | 3.49 | below the threshold | below the threshold | below the threshold | 4.82 | below the threshold | below the threshold | 4.11 | below the threshold | 3.84 | below the threshold | 3.9 | below the threshold | below the threshold | below the threshold | 3.76 | 3.91 | below the threshold | GSSSKEGTSV [RRBP1, Q9P2E9] | pKd [21]: 3.71; pKd [22]: below the threshold; pKd [23]: 3.64; pKd [24]: below the threshold; pKd [25]: 4.14; pKd [26]: 3.54; pKd [27]: 4.51; pKd [28]: below the threshold; pKd [29]: below the threshold
below the threshold | below the threshold | below the threshold | below the threshold | below the threshold | below the threshold | below the threshold | below the threshold | below the threshold | below the threshold | below the threshold | below the threshold | below the threshold | below the threshold | below the threshold | below the threshold | below the threshold | below the threshold | below the threshold | below the threshold | ADRDHASDQL [CTBP1, Q13363] | pKd [21]: 3.93; pKd [22]: below the threshold; pKd [23]: below the threshold; pKd [24]: 4.08; pKd [25]: 4.13; pKd [26]: below the threshold; pKd [27]: below the threshold; pKd [28]: below the threshold; pKd [29]: below the threshold
